Measured values as given in patent publication US20200157212A1 (Pfizer, published 2020).

T1: Terbium (Tb) labeled-SNAP tagged ROBO2 expressed on HEK293 cells (Homo sapiens (Human), UniProt Q9HCK4 22-1378, terbium label on the SNAP tag)
T1 construct: also called Tb-labeled ROBO2 cells; ROBO2 expressing cells; not shown: SNAP tag
T1 sequence: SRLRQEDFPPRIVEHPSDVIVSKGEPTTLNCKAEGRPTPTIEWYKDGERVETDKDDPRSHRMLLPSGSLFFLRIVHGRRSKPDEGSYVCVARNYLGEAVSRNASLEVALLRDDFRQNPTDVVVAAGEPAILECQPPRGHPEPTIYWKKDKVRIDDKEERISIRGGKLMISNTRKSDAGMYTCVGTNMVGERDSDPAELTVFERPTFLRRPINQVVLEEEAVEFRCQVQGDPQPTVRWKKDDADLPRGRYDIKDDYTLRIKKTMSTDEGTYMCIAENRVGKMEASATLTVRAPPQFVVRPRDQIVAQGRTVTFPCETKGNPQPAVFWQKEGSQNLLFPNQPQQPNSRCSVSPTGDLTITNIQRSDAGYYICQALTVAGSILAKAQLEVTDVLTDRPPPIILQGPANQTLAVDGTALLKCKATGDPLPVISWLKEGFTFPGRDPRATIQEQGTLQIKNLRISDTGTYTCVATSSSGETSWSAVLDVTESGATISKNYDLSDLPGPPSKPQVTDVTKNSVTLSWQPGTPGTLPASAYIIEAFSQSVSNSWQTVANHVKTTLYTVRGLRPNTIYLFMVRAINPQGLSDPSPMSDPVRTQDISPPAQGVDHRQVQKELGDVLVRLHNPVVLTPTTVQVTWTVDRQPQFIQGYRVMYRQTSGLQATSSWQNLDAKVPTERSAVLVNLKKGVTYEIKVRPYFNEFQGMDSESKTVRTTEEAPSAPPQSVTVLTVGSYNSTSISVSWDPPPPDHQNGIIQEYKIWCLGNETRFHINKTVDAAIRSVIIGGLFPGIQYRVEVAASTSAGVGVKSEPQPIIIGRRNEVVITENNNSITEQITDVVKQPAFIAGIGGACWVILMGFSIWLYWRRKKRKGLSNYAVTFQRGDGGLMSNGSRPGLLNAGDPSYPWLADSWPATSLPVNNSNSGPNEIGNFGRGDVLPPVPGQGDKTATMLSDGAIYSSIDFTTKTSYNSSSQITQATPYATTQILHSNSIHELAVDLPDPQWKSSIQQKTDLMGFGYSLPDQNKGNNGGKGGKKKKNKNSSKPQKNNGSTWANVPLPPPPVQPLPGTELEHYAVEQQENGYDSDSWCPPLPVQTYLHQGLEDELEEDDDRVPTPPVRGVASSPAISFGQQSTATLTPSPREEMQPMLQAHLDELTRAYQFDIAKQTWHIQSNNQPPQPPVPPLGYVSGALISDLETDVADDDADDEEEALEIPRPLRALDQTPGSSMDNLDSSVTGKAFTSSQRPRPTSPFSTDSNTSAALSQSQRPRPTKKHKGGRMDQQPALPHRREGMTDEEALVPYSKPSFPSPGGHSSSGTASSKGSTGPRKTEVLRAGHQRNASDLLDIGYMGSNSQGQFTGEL

T2: Human ROBO2 overexpressed on HEK293 cells (human, UniProt Q9HCK4 22-1378)
T2 construct: also called ROBO2 cells; native ROBO2
T2 sequence: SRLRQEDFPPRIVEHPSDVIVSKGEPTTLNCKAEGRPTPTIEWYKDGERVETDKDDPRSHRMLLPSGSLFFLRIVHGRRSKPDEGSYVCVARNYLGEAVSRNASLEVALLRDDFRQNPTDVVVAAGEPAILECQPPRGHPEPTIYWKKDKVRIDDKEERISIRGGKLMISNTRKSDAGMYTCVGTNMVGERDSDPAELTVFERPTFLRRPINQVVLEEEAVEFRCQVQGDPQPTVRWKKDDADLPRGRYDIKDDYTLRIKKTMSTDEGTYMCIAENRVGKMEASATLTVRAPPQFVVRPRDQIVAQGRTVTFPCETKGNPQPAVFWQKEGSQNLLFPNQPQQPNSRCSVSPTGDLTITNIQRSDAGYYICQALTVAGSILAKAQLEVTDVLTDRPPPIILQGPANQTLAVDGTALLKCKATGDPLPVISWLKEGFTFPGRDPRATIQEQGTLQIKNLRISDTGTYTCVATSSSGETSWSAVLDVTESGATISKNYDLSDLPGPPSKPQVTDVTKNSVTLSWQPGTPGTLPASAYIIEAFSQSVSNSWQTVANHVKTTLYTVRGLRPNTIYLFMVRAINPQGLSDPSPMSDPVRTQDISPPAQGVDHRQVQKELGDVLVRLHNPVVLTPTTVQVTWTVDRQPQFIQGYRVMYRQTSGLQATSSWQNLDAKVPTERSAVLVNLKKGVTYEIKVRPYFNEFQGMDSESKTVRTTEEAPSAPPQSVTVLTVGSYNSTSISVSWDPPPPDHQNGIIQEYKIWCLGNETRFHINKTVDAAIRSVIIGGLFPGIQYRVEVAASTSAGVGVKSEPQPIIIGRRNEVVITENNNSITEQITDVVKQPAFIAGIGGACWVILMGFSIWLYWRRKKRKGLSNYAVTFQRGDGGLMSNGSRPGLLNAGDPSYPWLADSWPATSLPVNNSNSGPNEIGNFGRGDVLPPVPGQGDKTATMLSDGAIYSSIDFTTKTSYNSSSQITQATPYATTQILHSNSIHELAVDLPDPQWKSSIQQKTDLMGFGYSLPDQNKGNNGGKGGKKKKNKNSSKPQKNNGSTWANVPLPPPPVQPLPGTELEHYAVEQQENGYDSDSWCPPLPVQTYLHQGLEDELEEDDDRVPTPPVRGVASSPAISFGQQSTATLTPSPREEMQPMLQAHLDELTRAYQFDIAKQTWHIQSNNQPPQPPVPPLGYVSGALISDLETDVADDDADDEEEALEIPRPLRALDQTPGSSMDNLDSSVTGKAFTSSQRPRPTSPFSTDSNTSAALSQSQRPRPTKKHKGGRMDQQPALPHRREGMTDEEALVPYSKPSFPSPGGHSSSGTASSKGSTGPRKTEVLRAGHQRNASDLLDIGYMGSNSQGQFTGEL

T3: Human ROBO2 Ig1-Ig2-His (human, UniProt Q9HCK4 31-220)
T3 construct: the His tag is named only in the SPR paragraphs; the Octet and ELISA paragraphs print 'ROBO2 Ig1-Ig2' without a tag; also called ROBO2 Ig1-2; Human ROBO2 Ig 1,2
T3 sequence: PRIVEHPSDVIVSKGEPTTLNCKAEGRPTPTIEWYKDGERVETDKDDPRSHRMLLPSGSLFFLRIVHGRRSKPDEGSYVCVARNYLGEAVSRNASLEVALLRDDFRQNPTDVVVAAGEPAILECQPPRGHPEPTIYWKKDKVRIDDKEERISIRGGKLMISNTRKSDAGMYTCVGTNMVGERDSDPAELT


Key:
[1] = target: T1, Terbium (Tb) labeled-SNAP tagged ROBO2 …; assay: HTRF, 5 nM d2-SLIT2-N on Tb-SNAP-ROBO2 HEK293 cells, 1 nM antibody
Protocol: (§1) In this assay, terbium (Tb) labeled-SNAP tagged ROBO2 expressing HEK293 cells were incubated with 5 nM d2-labeled SLIT-2N in the presence of 1 nM anti-ROBO2 antibodies for 1 hour. After incubation, fluorescence at 665 nm and 620 nm was measured on an Envision multilabel plate reader. […] Maximal signal was defined as the HTRF ratio of Tb-labeled ROBO2 cells with d2-labeled SLIT2-N in the absence of antibody, the minimum signal was defined as the HTRF ratio of Tb-labeled ROBO2 expressing HEK293 cells only. One nanomolar (nM) parental antibody, 93H2, was unable to block the HTRF assay, therefore this concentration was selected to identify clones with a higher affinity than 93H2 (Table 2, HTRF Ratio column). […] Antibodies derived from chain (Abcs series) or CDR shuffling (CTIR-2 series) were evaluated in 11-point, 5-fold dilution series with a top concentration of 1500 nM (Table 2 HTRF IC₅₀).
(§2) HTRF assays were run with 5 nM d2-labeled SLIT2-N and antibodies were added at 1 nM. […] Antibodies derived from chain (Abcs series) or CDR shuffling (CTIR-2 series) were evaluated in 11-point, 5-fold dilution series with a top concentration of 1500 nM, N.T. = not tested; ^cFold selectivity was calculated as Geometric Mean Fluorescent Intensity (Geo MFI) of ROBO2/Geo MFI of ROBO1 binding.

[2] = target: T2, Human ROBO2 overexpressed on HEK293 …; assay: flow cytometry on HEK293 cells overexpressing human ROBO2; N.B. = No binding to ROBO2
Protocol: The parental 93H2 antibody was highly ROBO2 specific, therefore affinity matured antibodies with single point neutralizing activity were screened by flow cytometry to ensure ROBO2 selectivity had been maintained. […] Binding of the antibodies was detected using a secondary fluorochrome conjugated anti-human IgG F(ab′)₂ antibody and samples were analyzed on a Fortessa cytometer (BD Biosciences). The fold ROBO2 selectivity was calculated as the geometric mean fluorescence intensity (Geo MFI) with ROBO2 cells/Geo MFI with ROBO1 cells. A fold change higher than 3 was considered to be ROBO2 specific (Table 2, Fold Selectivity). Some affinity matured clones had increased ROBO1 reactivity, for example Abcs 55, CTI-R2-10 and CTIR2-13.
Table 2 is a summary of assays used to screen antibodies against ROBO1 and/or ROBO2 to identify an antibody that specifically recognized ROBO2 but not ROBO1 with high affinity. […] Full dose curves were performed in the same assay for select antibodies. Recognition of native, surface expressed protein and ROBO2 selectivity was evaluated by flow cytometry. […] Anything with a value of greater than 3 was deemed to be selective for ROBO2. Outcomes of the various screening assays conducted for each antibody are highlighted in the final column.

Human ROBO2 Ig1-Ig2-His = target: T3, Human ROBO2 Ig1-Ig2-His; assay: Octet (BLI), relative Kd
[3] = target: T1, Terbium (Tb) labeled-SNAP tagged ROBO2 …; assay: HTRF competition, competitor d2-SLIT2-N, ROBO2 HEK293 cells
Protocol: as §1, with “Antibodies generated as a result of the affinity maturation campaign were screened by numerous assays for neutralization of SLIT2-N binding, selective binding to ROBO2 over ROBO1, and inhibition of SLIT2-N functional activity (see Table 2). A ROBO2-SLIT2-N homogenous time resolved fluorescence (HTRF) assay was used to identify antibodies that were capable of blocking SLIT2-N binding to ROBO2. In” for “In”

[4] = target: T2, Human ROBO2 overexpressed on HEK293 …; assay: flow cytometry, Geo MFI ROBO2/ROBO1 HEK293 cells, 0.1 µg/ml
Protocol: Binding of the antibodies was detected using a secondary fluorochrome conjugated anti-human IgG F(ab′)₂ antibody and samples were analyzed on a Fortessa cytometer (BD Biosciences). The fold ROBO2 selectivity was calculated as the geometric mean fluorescence intensity (Geo MFI) with ROBO2 cells/Geo MFI with ROBO1 cells. A fold change higher than 3 was considered to be ROBO2 specific (Table 2, Fold Selectivity). Some affinity matured clones had increased ROBO1 reactivity, for example Abcs 55, CTI-R2-10 and CTIR2-13.
as §2, with “binding. […] Outcomes: results are listed in order of assays listed in the table (left to right), I.A. = Improved Affinity” for “binding.”

Row | Binder | HTRF Ratio [1] | binding result [2] | Kd (Human ROBO2 Ig1-Ig2-His) [nM] | IC50 [3] [nM] | Fold Selectivity for ROBO2/ROBO1 [4] [fold]
1 | Ab17 (antibody, human IgG1, kappa, V domains shown, full-length human IgG) VH: EVQLVQSGAEVKKPGASVKVSCKASGYTFTGYDMHWVRQAPGQGLEWMGWINPNSGATNFPQKFQGRVTMTRDTSITTAYMDLSRLRSDDTAVYYCARESGDDAFDIWGQGTMVTVSS VL: DIVMTQSPSSLSASVGDRVTITCRASQSISSYLNWYQQKPGKAPKLLIYAASSLQEGVPSRFSGSGSGTDFTLTISSLQPEDFATYYCQQSYSTSFGGGTKVEIKR | 13500 | no binding (tested: 0.1 µg/ml) |  |  | 
2 | Ab21 (antibody, human IgG1, kappa, V domains shown, full-length human IgG) VH: EVQLVQSGAEVKKPGASVKVSCKASGYTFTGYDMHWVRQAPGQGLEWMGWINPNSGATNFPQKFQGRVTMTRDTSITTAYMDLSRLRSDDTAVYYCARESGDDAFDIWGQGTMVTVSS VL: DIVMTQSPSSLSASVGDRVTITCRASQSISSYLNWYQQKPGKAPKLLIYAASSLQYGVPSRFSGSGSGTDFTLTISSLQPEDFATYYCQQSYSTSFGGGTKVEIKR | 13100 | no binding (tested: 0.1 µg/ml) |  |  | 
3 | Ab9 (antibody, human IgG1, kappa, V domains shown, full-length human IgG) VH: EVQLVQSGAEVKKPGASVKVSCKASGYTFTGYDMHWVRQAPGQGLEWMGWINPNSGATNFPQKFQGRVTMTRDTSITTAYMDLSRLRSDDTAVYYCARESGDDAFDIWGQGTMVTVSS VL: DIVMTQSPSSLSASVGDRVTITCRASQRISSYLNWYQQKPGKAPKLLIYAASSLQSGVPSRFSGSGSGTDFTLTISSLQPEDFATYYCQQSYSTSFGGGTKVEIKR | 13600 | no binding (tested: 0.1 µg/ml) |  |  | 
4 | Ab96 (antibody, human IgG1, kappa, V domains shown, full-length human IgG) VH: EVQLVQSGAEVKKPGASVKVSCKASGYTFTGYYMHWVRQAPGQGLEWMGWINPKNGDTEFPQKFQGRVTMTRDTSITTAYMDLSRLRSDDTAVYYCARESGDDAFDIWGQGTMVTVSS VL: not shown | 3680 |  | 1.2 | 0.166 | 35
